These results are taken from the Immune Epitope Database (IEDB).

Targets include HLA-A*11:01; HLA-A*68:01; HLA-A*03:01; HLA-A*31:01; HLA-A*33:01.
What all share (test): IEDB peptide-MHC binding, purified MHC/competitive/radioactivity; filed as Kd, often an IC50 or EC50 that approximates it; ≥ and ≤ were set here for values at or beyond the usual limits of such assays
Where [1] appears, read: source organism: Dengue virus 3 Martinique/1243/1999.
The mark [2] stands for this setting: source organism: Vaccinia virus WR.
Setting [3] is: source organism: Mammarenavirus guanaritoense.
Where [4] appears, read: source organism: Lymphocytic choriomeningitis virus (strain Traub).
The mark [5] stands for this setting: source organism: Lymphocytic choriomeningitis virus (strain Armstrong).
Setting [6] is: source organism: Dengue virus 2 Jamaica/1409/1983.
[7] abbreviates: source organism: SARS coronavirus Tor2.
Where [8] appears, read: source organism: Vaccinia virus Copenhagen.
[9] abbreviates: source organism: Dengue virus 1 Brazil/97-11/1997.
The mark [10] stands for this setting: source organism: Dengue virus 4 Philippines/H241/1956.

The Kd is the concentration at which binding is half-saturated. As to TSADLTVEK, the equilibrium dissociation constant (Kd) with HLA-A*11:01 (setting [1]) turned out to be 185 nM; in the assay with HLA-A*68:01 (setting [1]) it was 15.5 nM.
As to NMKPNFWSR, the dissociation constant Kd with HLA-A*03:01 (setting [2]) was no less than 78000 nM; with HLA-A*11:01 (setting [2]) it was no less than 34700 nM; with HLA-A*31:01 (setting [2]) it was 0.349 nM; with HLA-A*33:01 (setting [2]), 1.06 nM; with HLA-A*68:01 (setting [2]) it was 208 nM.
As to RSIAMLKSK, the Kd with HLA-A*03:01 (setting [2]) is 216 nM; with HLA-A*11:01 (setting [2]), 3.11 nM; with HLA-A*31:01 (setting [2]) it was 1500 nM; in the assay with HLA-A*33:01 (setting [2]) it was no less than 77700 nM; with HLA-A*68:01 (setting [2]), 637 nM.
For the sequence RSKIEVGIRH, the dissociation constant (Kd) with HLA-A*03:01 (setting [3]) is 13700 nM; with HLA-A*11:01 (setting [3]) it was no less than 29000 nM; with HLA-A*31:01 (setting [3]), 1630 nM; with HLA-A*33:01 (setting [3]), no less than 70000 nM; in the assay with HLA-A*68:01 (setting [3]), no less than 22200 nM.
With NLKSLLLENK, the equilibrium dissociation constant (Kd) was 88.8 nM with HLA-A*03:01 (setting [2]); 63.4 nM with HLA-A*11:01 (setting [2]); 1060 nM with HLA-A*31:01 (setting [2]); 2160 nM with HLA-A*33:01 (setting [2]); 137 nM in the assay with HLA-A*68:01 (setting [2]).
In the case of KCHDHYLCRH, the Kd with HLA-A*03:01 (setting [4]) was no less than 24800 nM; with HLA-A*11:01 (setting [4]), no less than 69700 nM; with HLA-A*31:01 (setting [4]), 9650 nM; with HLA-A*33:01 (setting [4]), no less than 70000 nM; in the assay with HLA-A*68:01 (setting [4]), no less than 70100 nM.
For VLGLGLSLK, the Kd was 6.73 nM in the assay with HLA-A*03:01 (setting [2]); 25.7 nM in the assay with HLA-A*11:01 (setting [2]); 1570 nM in the assay with HLA-A*31:01 (setting [2]); no less than 26800 nM in the assay with HLA-A*33:01 (setting [2]); 9650 nM in the assay with HLA-A*68:01 (setting [2]).
Taken in the same sequence, the figures for HIKVDHPDK were 5150 nM, 5680 nM, 158 nM, 298 nM and 1960 nM.
For the sequence TTAFFNTCK, the Kd amounted to 46.2 nM with HLA-A*03:01 (setting [2]); 0.492 nM with HLA-A*11:01 (setting [2]); 226 nM in the assay with HLA-A*31:01 (setting [2]); 997 nM with HLA-A*33:01 (setting [2]); 0.947 nM with HLA-A*68:01 (setting [2]).
In the case of STLLTWHMH, the dissociation constant (Kd) with HLA-A*03:01 (setting [5]) was no less than 38200 nM; in the assay with HLA-A*11:01 (setting [5]), 258 nM; in the assay with HLA-A*31:01 (setting [5]), 4490 nM; in the assay with HLA-A*33:01 (setting [5]), no less than 77700 nM; with HLA-A*68:01 (setting [5]), 2720 nM.
On to MSTYGWNLVR, for which the Kd with HLA-A*68:01 (setting [6]) was 24.9 nM.
Take YTLFQQTGR: the dissociation constant Kd in the assay with HLA-A*03:01 (setting [2]) turned out to be 3100 nM; in the assay with HLA-A*11:01 (setting [2]), 551 nM; with HLA-A*31:01 (setting [2]), 50 nM; in the assay with HLA-A*33:01 (setting [2]), 24.1 nM; with HLA-A*68:01 (setting [2]), 0.384 nM.
Regarding RTELGVEFLK, the Kd in the assay with HLA-A*03:01 (setting [7]) came to 962 nM; with HLA-A*11:01 (setting [7]) it was 52.4 nM; with HLA-A*31:01 (setting [7]), 1350 nM; with HLA-A*33:01 (setting [7]), 15900 nM; in the assay with HLA-A*68:01 (setting [7]) it was 9720 nM.
On to MSHLKVALYR, for which the Kd in the assay with HLA-A*03:01 (setting [2]) amounted to 609 nM; with HLA-A*11:01 (setting [2]) it was 100 nM; in the assay with HLA-A*31:01 (setting [2]) it was 2.25 nM; with HLA-A*33:01 (setting [2]) it was 66.5 nM; in the assay with HLA-A*68:01 (setting [2]) it was 31.2 nM.
Regarding IVSSVNMISR, the Kd with HLA-A*33:01 (setting [6]) is 88.5 nM; with HLA-A*68:01 (setting [6]), 16.2 nM.
FMDEIDHESY: the dissociation constant Kd in the assay with HLA-A*03:01 (setting [2]) was 15800 nM; in the assay with HLA-A*11:01 (setting [2]), no less than 36400 nM; with HLA-A*31:01 (setting [2]), no less than 22000 nM; with HLA-A*33:01 (setting [2]), no less than 43700 nM; in the assay with HLA-A*68:01 (setting [2]), no less than 59200 nM.
For the sequence SSSLDQTHIK, the dissociation constant Kd with HLA-A*03:01 (setting [8]) is 90 nM; with HLA-A*11:01 (setting [8]) it was 4.92 nM; in the assay with HLA-A*31:01 (setting [8]), 868 nM; with HLA-A*33:01 (setting [8]), no less than 26000 nM; with HLA-A*68:01 (setting [8]) it was 850 nM.
KSTELIRRVR: the Kd was no less than 70100 nM with HLA-A*03:01 (setting [2]); no less than 20200 nM with HLA-A*11:01 (setting [2]); 15 nM with HLA-A*31:01 (setting [2]); 1930 nM with HLA-A*33:01 (setting [2]); 901 nM in the assay with HLA-A*68:01 (setting [2]).
Taken in the same sequence, the figures for DLLNSMMNR were 2210 nM, 14800 nM, 42.3 nM, 4.04 nM and 35.9 nM.
As for GALHLYFDK, the dissociation constant Kd with HLA-A*03:01 (setting [7]) came to 486 nM; with HLA-A*11:01 (setting [7]), 0.928 nM; with HLA-A*31:01 (setting [7]), 143 nM; in the assay with HLA-A*33:01 (setting [7]), 15400 nM; in the assay with HLA-A*68:01 (setting [7]) it was 4970 nM.
For the sequence FTLNHVLALK, the dissociation constant Kd with HLA-A*03:01 (setting [2]) amounted to 10.6 nM; with HLA-A*11:01 (setting [2]) it was 7.96 nM; with HLA-A*31:01 (setting [2]), 135 nM; with HLA-A*33:01 (setting [2]), 1710 nM; with HLA-A*68:01 (setting [2]), 4.61 nM.
For the sequence SSMLNIMNR, the Kd is 10.4 nM with HLA-A*11:01 (setting [9]), 11800 nM with HLA-A*31:01 (setting [9]) and 7.35 nM with HLA-A*68:01 (setting [9]).
Consider VTCAMFTCKK, for which the equilibrium dissociation constant (Kd) with HLA-A*03:01 (setting [6]) is 86.7 nM; with HLA-A*11:01 (setting [6]) it was 97.7 nM.
As for FLLFLEITY, the Kd with HLA-A*03:01 (setting [2]) was found to be 10500 nM; with HLA-A*11:01 (setting [2]), 15900 nM; with HLA-A*31:01 (setting [2]), 160 nM; in the assay with HLA-A*33:01 (setting [2]), 7170 nM; with HLA-A*68:01 (setting [2]) it was 1900 nM.
LTLFVEECLR: the dissociation constant (Kd) in the assay with HLA-A*33:01 (setting [10]) amounted to 60.7 nM; with HLA-A*68:01 (setting [10]), 56.2 nM.
